According to publication PMC10375191, “Transformable Neuropeptide Prodrug with Tumor Microenvironment Responsiveness for Tumor Growth and Metastasis Inhibition of Triple‐Negative Breast Cancer” (Advanced Science, 2023):
Starred links: 1 amine or outer side, 2 acyl side, 3 side chain; linkers in the order of their positions; H or OH if unused. Residues, ends and D or L forms follow the SMILES beside them. *: point of attachment. Doxorubicin(3'-N) = COc1cccc2c1C(=O)c1c(O)c3c(c(O)c1C2=O)C[C@@](O)(C(=O)CO)C[C@@H]3O[C@H]1C[C@H](N*)[C@H](O)[C@H](C)O1; Suc = O=C(CCC(=O)[*:2])[*:1]

Legend:
MDA‐MB‐231 cells [1] = assay: Transwell invasion assay (Matrigel); format: cell-based, human; settings: MDA-MB-231, Matrigel transwell, 1 µg mL^−1 in lower chamber, 24 h, versus PBS group, n = 3
Method: 1 × 10^6 MDA‐MB‐231 cells were suspended on the top chambers of the transwell with Matrigel. Cells were cultured in DMEM without FBS overnight. […] After incubation for 24 h, the cells on the upper wells were cautiously erased with a cotton swab. Cells on the lower surface were fixed with 4% PFA and stained with crystal violet. After multiple washing with PBS, the cells that passed through the membrane were recorded with a microscope (DFC 450C, Leica, Germany).

MCF‐7 cells = assay: CCK-8 cell viability assay, MCF-7; format: cell-based, human; settings: MCF-7, 24 h
Method: (§1) MDA‐MB‐231 cells were incubated in 96‐well plates for 24 h (1 × 10^4 cells per well). […] At the appointed time, 10 µL CCK‐8 solution was dropped into each well and further co‐incubated with treated cells for 2 h. The absorbance values at 450 nm were measured by an automated plate reader (iMark (168‐1130), Biorad, USA). The IC50 values were obtained from Microsoft Excel's FORECAST formula.
breast cancer cell line MCF-7 after 24 h incubation. Data are presented as means ±
standard deviations (n = 3).
(§2) (1 picture or pasted object on this page, not shown here)

healthy ICR mice = assay: Maximum tolerated dose / acute toxicity study
Excerpt: Animal survival of each group (n = 10, 5 female and 5 male) was continuously recorded for 14 days. Eventually, the evaluation and calculation of the median lethal dose (LD50) were completed with these collected data using the Bliss rule.

[2] = tested on: MDA‐MB‐231 metastasis model; assay: Anti-metastasis evaluation, MDA-MB-231 metastasis model; format: in vivo, mouse; settings: MDA-MB-231-luc i.v. model
Excerpt: All the animal experimental procedures were recognized and approved by the Regional Ethics Committee for Animal Experiments at Ningbo University, China (Permit NO. SYXK (Zhe) 2019‐0005). The triple‐negative breast cancer (TNBC) xenograft tumors were established on female BALB/c nude mice (≈15 g) by subcutaneous injection of MDA‐MB‐231 cells (5 × 10^6 cells in each mouse). TNBC metastasis models were constructed by injecting MDA‐MB‐231‐luc cells (1 × 10^5 cells in each mouse) through the tail vein to female BALB/c nude mice. The day that MDA‐MB‐231‐luc was injected was set as D0. In vivo imaging system (IVIS) (Lumina XRMS Ш, PerkinElmer, USA) was utilized to identify the tumor metastasis at D12.
For the TNBC metastasis model, two kinds of treatments were developed. […] After seven times of injections, continued observation of the mice was carried out. […] In vivo imaging system (IVIS Lumina XRMS Ш, PerkinElmer, USA) was utilized again to estimate the tumor metastasis at D26. Meanwhile, the mice were sacrificed and the main organs (heart, livers, spleen, lung, and kidney) were separated for histological analysis.

MDA‐MB‐231 cells [3] = assay: CCK-8 cell viability assay, MDA-MB-231; format: cell-based, human; settings: MDA-MB-231, 36 and 48 h versus 24 h
Method: as §1

[4] = biological target: T1, matrix metalloproteinase‐9 (MMP‐9) (Homo sapiens, UniProt P14780); assay: MMPs-responsive cleavage of DOX-P18 by MMP-9 (HPLC, MS, fluorescence); format: in vitro ADME
T1 construct: purchased Novoprotein Scientific Inc. (Shanghai, China)
Method: The enzymatic reaction process was monitored by HPLC at 6, 12, 24, and 72 h.
Doxorubicin hydrochloride (DOX·HCl), trifluoroacetic acid (TFA), and anhydrous N,N-Dimethylformamide (DMF) were purchased from Aladdin (Shanghai, China).
Thioanisole (TA), 1,2-ethanedithiol (EDT), and phenol were obtained from Macklin (Shanghai, China). 4-methylmorpholine (NMM), N,N’-diisopropylcarbodiimide (DIC), and 1-hydroxybenzotriazole (HOBt) were purchased from OKA (Beijing, China). Rink amide methylbenzhydrylamine (MBHA) resin, Wang resin and all Fmoc-protected amino acids were obtained from NJPeptide (Nanjing, China). Ethanol, diethyl ether, acetonitrile (ACN), and methanol were purchased from Sinopharm Chemical Reagent Co., Ltd (Shanghai, China). Piperidine, p-nitrophenol, and succinic anhydride (Succ) were obtained from Sigma-Aldrich (Shanghai, China). Recombinant human matrix metalloproteinase-2 (MMP-2) and matrix metalloproteinase-9 (MMP-9) produced by Novoprotein Scientific Inc. (Shanghai, China) are supplied as a 0.2 μm filtered buffer mixture of 20 mM Tris-HCl, 2 mM CaCl2, 150 mM NaCl, 0.05 % Brij 35 (w/v), pH 7.5, and their specific activity is >1300 pmol/min/µg as measured under the described conditions. All commercial reagents and HPLC solvents were used with […]

[5] = Pharmacokinetics in plasma; format: in vivo, mouse; settings: ICR female mice, 10 mg kg^−1 DOX content i.v.
Method: The drug contents were quantified by HPLC (1260 Infinity II, Agilent, USA) as described in the methods of characterization in Supporting Information and the pharmacokinetic parameters were analyzed using the Phoenix WinNonlin 8.3.5 software.

[6] = Morphological transformation / particle size by DLS and TEM in PBS of different pH; format: physicochemical; settings: DLS
MCF‐10A cells = assay: CCK-8 cell viability assay, MCF-10A; format: cell-based, human; settings: 24 h
Method: as §1
mammary epithelial cell line MCF-10A after 24 h incubation. Data are presented as
means ± standard deviations (n = 3).
as §2

MDA‐MB‐231 cells [7] = assay: Wound healing experiment; format: cell-based, human
Method: Wound healing culture inserts were tightly stuck on 12‐well plates and 2 × 10^4 MDA‐MB‐231 cells were seeded in the gap of the culture inserts to incubate for 24 h. […] After incubation for 12 and 24 h, the wound healing area was photographed by a microscope (DFC 450C, Leica, Germany).

T1 sequence (P14780 94-707): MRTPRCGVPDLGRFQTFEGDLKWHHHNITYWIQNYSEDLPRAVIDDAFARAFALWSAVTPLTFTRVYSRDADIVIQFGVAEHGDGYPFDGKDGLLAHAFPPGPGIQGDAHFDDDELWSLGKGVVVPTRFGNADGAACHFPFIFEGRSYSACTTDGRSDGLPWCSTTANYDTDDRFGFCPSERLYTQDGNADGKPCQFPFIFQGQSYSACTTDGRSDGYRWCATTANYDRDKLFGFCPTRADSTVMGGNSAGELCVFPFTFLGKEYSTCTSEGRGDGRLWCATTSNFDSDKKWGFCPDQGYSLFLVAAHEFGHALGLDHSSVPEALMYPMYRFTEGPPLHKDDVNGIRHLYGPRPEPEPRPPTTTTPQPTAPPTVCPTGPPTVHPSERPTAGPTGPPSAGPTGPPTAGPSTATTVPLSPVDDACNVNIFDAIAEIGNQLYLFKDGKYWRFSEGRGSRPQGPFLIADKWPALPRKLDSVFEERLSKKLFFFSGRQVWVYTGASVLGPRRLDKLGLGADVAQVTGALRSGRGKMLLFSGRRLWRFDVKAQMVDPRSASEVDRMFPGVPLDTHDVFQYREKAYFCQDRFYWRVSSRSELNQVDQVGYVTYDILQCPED

CC[C@H](C)[C@H](NC(=O)[C@@H]1CCCN1C(=O)[C@H](CC(N)=O)NC(=O)[C@H](CC(N)=O)NC(=O)[C@H](Cc1ccc(O)cc1)NC(=O)[C@H](Cc1c[nH]cn1)NC(=O)[C@H](CCCNC(=N)N)NC(=O)CNC(=O)[C@H](CCCNC(=N)N)NC(=O)[C@@H](NC(=O)CNC(=O)[C@H](CC(C)C)NC(=O)[C@@H]1CCCN1C(=O)CCC(=O)N[C@H]1C[C@H](O[C@H]2C[C@](O)(C(=O)CO)Cc3c(O)c4c(c(O)c32)C(=O)c2c(OC)cccc2C4=O)O[C@@H](C)[C@H]1O)C(C)C)C(=O)N[C@@H](Cc1c[nH]c2ccccc12)C(=O)N[C@@H](CCCNC(=N)N)C(=O)N[C@@H](CCC(N)=O)C(=O)N[C@@H](CCCNC(=N)N)C(=O)N[C@@H](Cc1ccc(O)cc1)C(N)=O [DOX‐P18] ({Doxorubicin(3'-N)-Suc}-PLGVRGRHYNNPIWRQRY-NH2)
Inhibition on cell invasion (MDA‐MB‐231 cells [1]): 50% | IC50 (cytotoxicity), in words (MCF‐7 cells): higher | Histological analysis of major organs (healthy ICR mice; 14 days after single dose, 40 mg kg^−1 DOX (or DOX equivalent)): no significant differences in major organs | Blood routine indexes (healthy ICR mice; 14 days after single injection, n = 3, DOX: WBC, PLT, PCT at 10 mg kg^−1, DOX-P18: all indexes, different doses): not significantly different | Improvement of biosafety (LD50 versus DOX) (healthy ICR mice; LD50 in DOX equivalents versus free DOX): 67.8% | Single-dose median lethal dose (LD50) (healthy ICR mice; single intravenous dose, 14 days, n = 10 per group, Bliss rule): 221.5 mg/kg | Lung metastasis, prevention schedule (histology D26) ([2]; 25 mg kg^−1 DOX-P18 (5 mg kg^−1 DOX) seven times every 2 days from D0): limited number | Lung and bone metastasis, treatment schedule (histology D26) ([2]; 25 mg kg^−1 DOX-P18 (5 mg kg^−1 DOX) seven times every 2 days from D14): significant metastasis inhibition | IC50 with extended incubation time (MDA‐MB‐231 cells [3]): further reduced | Cleavage efficiency of MMP-9 relative to MMP-2 ([4]; 0.1 µg mL^−1 MMP-2 or MMP-9, 20 µg mL^−1 DOX-P18, 12 and 24 h, fluorescence intensity at 592 nm (Ex 488 nm)): about 10 times | Enzymatic cleavage by MMP-9 ([4]; 1 mg mL^−1 DOX-P18 with 1 µg mL^−1 MMP-9, 37 °C, HPLC at 6, 12, 24, 72 h, monitored at 500 nm, product DOX-P3 identified by MS): efficiently cleaved | Plasma clearance (CL) relative to DOX [5]: 1/4 | Total plasma concentration (AUC) relative to DOX [5]: four times higher | Aggregation state (particle size distribution) ([6]; PBS buffer pH 7.4): nanoparticles could only be detected | Aggregation state (particle size distribution) ([6]; PBS, neutral and weakly acidic media (pH ≤ 6.5; 6.5, 6.0, 5.0)): monomolecular dispersion | IC50 (cytotoxicity), in words (MCF‐10A cells): higher | Wound healing rate (MDA‐MB‐231 cells [7]; MDA-MB-231, 5 µg mL^−1, 12 h, PBS group 50.8%): 40.3% | Wound healing rate (coverage rate) (MDA‐MB‐231 cells [7]; MDA-MB-231, 5 µg mL^−1, 24 h, PBS group defined as 100%): 71.5%
